This passage reports Kd results from paper PMC6985235 (2020).

The assay addresses His-TvCyP1 (Trichomonas vaginalis, UniProt A2DT06 1-173). As to the kind of experiment: ITC; 25°C.

B1: His-Myb3^53–180 (domain or fragment)
chain: KGPFTEAEDDLIREYVKENGPQNWPRITSFLPNRSPKQCRERWFNHLDPAVVKHAWTPEEDETIFRNYLKLGSKWSVIAKLIPGRTDNAIKNRWNSSISKRISTNSNHKEILLPDRSKKRKAADVPKK
Turning to B1, the Kd was found to be 2040 µM.
